Starred links: 1 amine or outer side, 2 acyl side, 3 side chain; linkers in the order of their positions; H or OH if unused. Non-standard residues stand in square brackets, D forms with d. Groups on a side chain read outwards from the residue. No end group written: not given here. *: point of attachment. C20 diacid = O=C(O)CCCCCCCCCCCCCCCCCCC(=O)*; C18 diacid = O=C(O)CCCCCCCCCCCCCCCCC(=O)*; γGlu = O=C(O)[C@H](CCC(=O)[*:2])N[*:1]; αMeF = C[C@](N)(Cc1ccccc1)C(=O)O; AEEA = NCCOCCOCC(=O)O; Aib = CC(C)(N)C(=O)O
Tests used:
[1] = target: human GLP-1 receptor (hGLP-1R) (human, UniProt P43220 24-463); experiment: cell-based or functional assay
[2] = target: human glucagon receptor (hGCGR) (human, UniProt P47871 26-477); experiment: cell-based or functional assay
human glucagon receptor (hGCGR), sequence (P47871 26-477): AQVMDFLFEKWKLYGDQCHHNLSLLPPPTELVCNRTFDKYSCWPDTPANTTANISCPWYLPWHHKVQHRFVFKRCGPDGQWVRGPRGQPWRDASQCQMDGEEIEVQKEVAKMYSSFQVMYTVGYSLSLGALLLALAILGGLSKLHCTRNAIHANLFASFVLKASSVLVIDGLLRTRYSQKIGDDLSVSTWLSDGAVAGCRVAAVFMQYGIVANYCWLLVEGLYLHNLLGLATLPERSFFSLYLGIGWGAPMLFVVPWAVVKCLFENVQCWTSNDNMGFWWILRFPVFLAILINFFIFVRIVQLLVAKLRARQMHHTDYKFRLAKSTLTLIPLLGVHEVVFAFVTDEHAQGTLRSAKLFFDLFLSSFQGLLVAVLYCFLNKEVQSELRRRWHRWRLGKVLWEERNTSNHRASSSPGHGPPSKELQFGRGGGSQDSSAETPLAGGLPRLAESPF

Binder | hGLP-1R EC50 (pM) [1] [pM] | hGluc-R EC50 (pM) [2] [pM]
H[Aib]QGTFTSDVSK[αMeF]LDTK([AEEA-AEEA-γGlu-C20 diacid])RARDFVRWLL[Aib]TE-OH (N-terminus assumed; SMILES CC(C)C[C@H](NC(=O)[C@H](Cc1c[nH]c2ccccc12)NC(=O)[C@H](CCCNC(=N)N)NC(=O)[C@@H](NC(=O)[C@H](Cc1ccccc1)NC(=O)[C@H](CC(=O)O)NC(=O)[C@H](CCCNC(=N)N)NC(=O)[C@H](C)NC(=O)[C@H](CCCNC(=N)N)NC(=O)[C@H](CCCCNC(=O)COCCOCCNC(=O)COCCOCCNC(=O)CC[C@H](NC(=O)CCCCCCCCCCCCCCCCCCC(=O)O)C(=O)O)NC(=O)[C@@H](NC(=O)[C@H](CC(=O)O)NC(=O)[C@H](CC(C)C)NC(=O)[C@](C)(Cc1ccccc1)NC(=O)[C@H](CCCCN)NC(=O)[C@H](CO)NC(=O)[C@@H](NC(=O)[C@H](CC(=O)O)NC(=O)[C@H](CO)NC(=O)[C@@H](NC(=O)[C@H](Cc1ccccc1)NC(=O)[C@@H](NC(=O)CNC(=O)[C@H](CCC(N)=O)NC(=O)C(C)(C)NC(=O)[C@@H](N)Cc1c[nH]cn1)[C@@H](C)O)[C@@H](C)O)C(C)C)[C@@H](C)O)C(C)C)C(=O)N[C@@H](CC(C)C)C(=O)NC(C)(C)C(=O)N[C@H](C(=O)N[C@@H](CCC(=O)O)C(=O)O)[C@@H](C)O) [Peptide 492] | 212 | 374
H[Aib]QGTFTSDVSK[αMeF]LDTK([AEEA-AEEA-γGlu-C18 diacid])RARDFVRWLL[Aib]TE-OH (N-terminus assumed; SMILES CC(C)C[C@H](NC(=O)[C@H](Cc1c[nH]c2ccccc12)NC(=O)[C@H](CCCNC(=N)N)NC(=O)[C@@H](NC(=O)[C@H](Cc1ccccc1)NC(=O)[C@H](CC(=O)O)NC(=O)[C@H](CCCNC(=N)N)NC(=O)[C@H](C)NC(=O)[C@H](CCCNC(=N)N)NC(=O)[C@H](CCCCNC(=O)COCCOCCNC(=O)COCCOCCNC(=O)CC[C@H](NC(=O)CCCCCCCCCCCCCCCCC(=O)O)C(=O)O)NC(=O)[C@@H](NC(=O)[C@H](CC(=O)O)NC(=O)[C@H](CC(C)C)NC(=O)[C@](C)(Cc1ccccc1)NC(=O)[C@H](CCCCN)NC(=O)[C@H](CO)NC(=O)[C@@H](NC(=O)[C@H](CC(=O)O)NC(=O)[C@H](CO)NC(=O)[C@@H](NC(=O)[C@H](Cc1ccccc1)NC(=O)[C@@H](NC(=O)CNC(=O)[C@H](CCC(N)=O)NC(=O)C(C)(C)NC(=O)[C@@H](N)Cc1c[nH]cn1)[C@@H](C)O)[C@@H](C)O)C(C)C)[C@@H](C)O)C(C)C)C(=O)N[C@@H](CC(C)C)C(=O)NC(C)(C)C(=O)N[C@H](C(=O)N[C@@H](CCC(=O)O)C(=O)O)[C@@H](C)O) [Peptide 491] | 73.6 | 232
H[Aib]QGTFTSDVSK[αMeF]LDTK([AEEA-AEEA-γGlu-C20 diacid])RAQDFVRWLLR[Aib]K-NH2 (N-terminus assumed; SMILES CC(C)C[C@H](NC(=O)[C@H](Cc1c[nH]c2ccccc12)NC(=O)[C@H](CCCNC(=N)N)NC(=O)[C@@H](NC(=O)[C@H](Cc1ccccc1)NC(=O)[C@H](CC(=O)O)NC(=O)[C@H](CCC(N)=O)NC(=O)[C@H](C)NC(=O)[C@H](CCCNC(=N)N)NC(=O)[C@H](CCCCNC(=O)COCCOCCNC(=O)COCCOCCNC(=O)CC[C@H](NC(=O)CCCCCCCCCCCCCCCCCCC(=O)O)C(=O)O)NC(=O)[C@@H](NC(=O)[C@H](CC(=O)O)NC(=O)[C@H](CC(C)C)NC(=O)[C@](C)(Cc1ccccc1)NC(=O)[C@H](CCCCN)NC(=O)[C@H](CO)NC(=O)[C@@H](NC(=O)[C@H](CC(=O)O)NC(=O)[C@H](CO)NC(=O)[C@@H](NC(=O)[C@H](Cc1ccccc1)NC(=O)[C@@H](NC(=O)CNC(=O)[C@H](CCC(N)=O)NC(=O)C(C)(C)NC(=O)[C@@H](N)Cc1c[nH]cn1)[C@@H](C)O)[C@@H](C)O)C(C)C)[C@@H](C)O)C(C)C)C(=O)N[C@@H](CC(C)C)C(=O)N[C@@H](CCCNC(=N)N)C(=O)NC(C)(C)C(=O)N[C@@H](CCCCN)C(N)=O) [Peptide 496] | 64.9 | 482
H[Aib]QGTFTSDVSK[αMeF]LDTK([AEEA-AEEA-γGlu-C20 diacid])RARDFVQWLL[Aib]TE-NH2 (N-terminus assumed; SMILES CC(C)C[C@H](NC(=O)[C@H](Cc1c[nH]c2ccccc12)NC(=O)[C@H](CCC(N)=O)NC(=O)[C@@H](NC(=O)[C@H](Cc1ccccc1)NC(=O)[C@H](CC(=O)O)NC(=O)[C@H](CCCNC(=N)N)NC(=O)[C@H](C)NC(=O)[C@H](CCCNC(=N)N)NC(=O)[C@H](CCCCNC(=O)COCCOCCNC(=O)COCCOCCNC(=O)CC[C@H](NC(=O)CCCCCCCCCCCCCCCCCCC(=O)O)C(=O)O)NC(=O)[C@@H](NC(=O)[C@H](CC(=O)O)NC(=O)[C@H](CC(C)C)NC(=O)[C@](C)(Cc1ccccc1)NC(=O)[C@H](CCCCN)NC(=O)[C@H](CO)NC(=O)[C@@H](NC(=O)[C@H](CC(=O)O)NC(=O)[C@H](CO)NC(=O)[C@@H](NC(=O)[C@H](Cc1ccccc1)NC(=O)[C@@H](NC(=O)CNC(=O)[C@H](CCC(N)=O)NC(=O)C(C)(C)NC(=O)[C@@H](N)Cc1c[nH]cn1)[C@@H](C)O)[C@@H](C)O)C(C)C)[C@@H](C)O)C(C)C)C(=O)N[C@@H](CC(C)C)C(=O)NC(C)(C)C(=O)N[C@H](C(=O)N[C@@H](CCC(=O)O)C(N)=O)[C@@H](C)O) [Peptide 490] | 69 | 396
H[Aib]QGTFTSDVSK[αMeF]LDTK([AEEA-AEEA-γGlu-C18 diacid])RAQDFVRWLLR[Aib]K-NH2 (N-terminus assumed; SMILES CC(C)C[C@H](NC(=O)[C@H](Cc1c[nH]c2ccccc12)NC(=O)[C@H](CCCNC(=N)N)NC(=O)[C@@H](NC(=O)[C@H](Cc1ccccc1)NC(=O)[C@H](CC(=O)O)NC(=O)[C@H](CCC(N)=O)NC(=O)[C@H](C)NC(=O)[C@H](CCCNC(=N)N)NC(=O)[C@H](CCCCNC(=O)COCCOCCNC(=O)COCCOCCNC(=O)CC[C@H](NC(=O)CCCCCCCCCCCCCCCCC(=O)O)C(=O)O)NC(=O)[C@@H](NC(=O)[C@H](CC(=O)O)NC(=O)[C@H](CC(C)C)NC(=O)[C@](C)(Cc1ccccc1)NC(=O)[C@H](CCCCN)NC(=O)[C@H](CO)NC(=O)[C@@H](NC(=O)[C@H](CC(=O)O)NC(=O)[C@H](CO)NC(=O)[C@@H](NC(=O)[C@H](Cc1ccccc1)NC(=O)[C@@H](NC(=O)CNC(=O)[C@H](CCC(N)=O)NC(=O)C(C)(C)NC(=O)[C@@H](N)Cc1c[nH]cn1)[C@@H](C)O)[C@@H](C)O)C(C)C)[C@@H](C)O)C(C)C)C(=O)N[C@@H](CC(C)C)C(=O)N[C@@H](CCCNC(=N)N)C(=O)NC(C)(C)C(=O)N[C@@H](CCCCN)C(N)=O) [Peptide 495] | 23.2 | 380
H[Aib]QGTFTSDVSK[αMeF]LDTK([AEEA-AEEA-γGlu-C20 diacid])RAQDFVRWLLR[Aib]K-OH [Peptide 494] | 98.7 | 212
H[Aib]QGTFTSDVSK[αMeF]LDTK([AEEA-AEEA-γGlu-C18 diacid])RARDFVQWLL[Aib]TE-NH2 (N-terminus assumed; SMILES CC(C)C[C@H](NC(=O)[C@H](Cc1c[nH]c2ccccc12)NC(=O)[C@H](CCC(N)=O)NC(=O)[C@@H](NC(=O)[C@H](Cc1ccccc1)NC(=O)[C@H](CC(=O)O)NC(=O)[C@H](CCCNC(=N)N)NC(=O)[C@H](C)NC(=O)[C@H](CCCNC(=N)N)NC(=O)[C@H](CCCCNC(=O)COCCOCCNC(=O)COCCOCCNC(=O)CC[C@H](NC(=O)CCCCCCCCCCCCCCCCC(=O)O)C(=O)O)NC(=O)[C@@H](NC(=O)[C@H](CC(=O)O)NC(=O)[C@H](CC(C)C)NC(=O)[C@](C)(Cc1ccccc1)NC(=O)[C@H](CCCCN)NC(=O)[C@H](CO)NC(=O)[C@@H](NC(=O)[C@H](CC(=O)O)NC(=O)[C@H](CO)NC(=O)[C@@H](NC(=O)[C@H](Cc1ccccc1)NC(=O)[C@@H](NC(=O)CNC(=O)[C@H](CCC(N)=O)NC(=O)C(C)(C)NC(=O)[C@@H](N)Cc1c[nH]cn1)[C@@H](C)O)[C@@H](C)O)C(C)C)[C@@H](C)O)C(C)C)C(=O)N[C@@H](CC(C)C)C(=O)NC(C)(C)C(=O)N[C@H](C(=O)N[C@@H](CCC(=O)O)C(N)=O)[C@@H](C)O) [Peptide 489] | 22.8 | 168
H[Aib]QGTFTSDVSK[αMeF]LDTK([AEEA-AEEA-γGlu-C18 diacid])RAQDFVRWLLR[Aib]K-OH (N-terminus assumed; SMILES CC(C)C[C@H](NC(=O)[C@H](Cc1c[nH]c2ccccc12)NC(=O)[C@H](CCCNC(=N)N)NC(=O)[C@@H](NC(=O)[C@H](Cc1ccccc1)NC(=O)[C@H](CC(=O)O)NC(=O)[C@H](CCC(N)=O)NC(=O)[C@H](C)NC(=O)[C@H](CCCNC(=N)N)NC(=O)[C@H](CCCCNC(=O)COCCOCCNC(=O)COCCOCCNC(=O)CC[C@H](NC(=O)CCCCCCCCCCCCCCCCC(=O)O)C(=O)O)NC(=O)[C@@H](NC(=O)[C@H](CC(=O)O)NC(=O)[C@H](CC(C)C)NC(=O)[C@](C)(Cc1ccccc1)NC(=O)[C@H](CCCCN)NC(=O)[C@H](CO)NC(=O)[C@@H](NC(=O)[C@H](CC(=O)O)NC(=O)[C@H](CO)NC(=O)[C@@H](NC(=O)[C@H](Cc1ccccc1)NC(=O)[C@@H](NC(=O)CNC(=O)[C@H](CCC(N)=O)NC(=O)C(C)(C)NC(=O)[C@@H](N)Cc1c[nH]cn1)[C@@H](C)O)[C@@H](C)O)C(C)C)[C@@H](C)O)C(C)C)C(=O)N[C@@H](CC(C)C)C(=O)N[C@@H](CCCNC(=N)N)C(=O)NC(C)(C)C(=O)N[C@@H](CCCCN)C(=O)O) [Peptide 493] | 23.4 | 166

— patent US20230357348A1 (AstraZeneca / MedImmune, published 2023)
